Experimental data as given in the domain aggregation screens of Martell et al. (2025).

Experiment: soluble fraction after stress (log2 fold change); higher = more stays soluble; pooled small domains, quantitative proteomics
Details: stress: 75 degC
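Further: 20 min heating vs room temperature control held 20 min.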

Going from “HMNETHANKVYNFLKKKKKPLSAYEILKELASEGISAPTTIYRALNKLVSNGLIHKIESLNAWTV” to “HMNETLKQIRINALQYSEKDMATKLGLPLSEYKEIENDKPLNFTLLIRLSQAVGKTIDDLLNAQ”, the “soluble fraction (log2)” value falls from 0.251 to -0.95.

First: HMNEVETWSVQADGATGRIDKWLAEQNEWSRSQVQEWLKAGRVEVDGRVVKPNYKLSGTESIAVHIPEAV
Second: HMNEWVSVEERLPTDERPVLAFIGYADTMNGFITTSYYFRFDPDPHWLGEGLIPVGLKTLFWMPLPAP
The “soluble fraction (log2)” value of the first is lower: -0.244 for the first, 0.277 for the second.

“HMNEYSLVPDIYGMTYDDALSSLRNVGLDGRLALASTNEDLANADTRVVWQSKEAGSIIDKGSNVMFVID” and “HMNFAERIKELRKEKGITQIDLAEAVGLSKGTVAMWEVDKREANFDTLNKLSDYFQVSIDYLLGRSNDRS” are within 0.2 log units of each other in “soluble fraction (log2)” value: -0.01 for the first, -0.0785 for the second.

First: HMNFDVETGLPLDSRLVVSGLIQRDGINSLKRYEGMIVYVESEAKNYQLVGGISNTDWAELS
Second: HMNFGEVLQTKRKSMGLTQEDLADKLFVSSETISNWETNKTTPDIDNVIRISQLFDISLNNLLL
The “soluble fraction (log2)” value of the first is lower: -1.35 for the first, -0.415 for the second.

Compared with “HMNFIPGEKINLKIVQEGKEKNQGVGYLSDGTMVIVENGSQKLGQDVEVVVIKNIQSSAGKIVFGDISK”, “HMNFSRQREIIYEQVRNFPVHPTAEEVYRALKNDNPNLSLGTVYRNLNQLSEAGMLLKIPIADGSDRFDGR” is lower in “soluble fraction (log2)” value: 0.158 for the first, -0.655 for the second.

Compared with “HMNFTETENRIYEEILKNVKQHKKKTVVQIAEKVDVAPSYVIKVAKKLGYSGLNEMWYSLSGIY”, “HMNFTMERLYTKELTSEDIDEIKKELNSMGYTEGVEFNIIKGDKTSFIMAERQLKAKMLSHLSDLGLPRGA” is higher in “soluble fraction (log2)” value: -0.916 for the first, -0.245 for the second.

Going from “HMNGAAAEQARKQLMTALKASEFIAQDKLDEWLDALALPQEKRSAIIDAVDELDYEEAISELEN” to “HMNGDWISARQEYYIRGLWDLASRAKDEASLQAMLQRIAGVTQIEWISKEKATKVILALRDIAKK”, the “soluble fraction (log2)” value falls from 0.287 to -1.6.

Compared with “HMNGELSQRQWQILRLIAQGLSNEQMARQLFVAPSTIKTHINHLYAKLGVRTRAEAQAIARQKLMA”, “HMNGIFEYSDAKKVPSLVEIENAYRRARVNGAEKFAVIINGEYFGYNPQKRGIYKLNDGEYQIL” is higher in “soluble fraction (log2)” value: -1.23 for the first, -0.428 for the second.

Compared with “HMNGKPDMTPIPAGSRNNDLHAWAYGRLLNHPDNAEAIRRDLFERGQTSGLKESELETIWQSIRRQLGGD”, “HMNGKTIEVPDITEKSIAEAQLILNQKKLRYNVVDSTRFDPAYLPFSVLTQEPEAGDEVKKNRTIYITLNP” is lower in “soluble fraction (log2)” value: 0.44 for the first, -0.183 for the second.

Compared with “HMNGLDSVLRNWARQTLASGGENLLGDLTDHVTRLIISEALIMTGGNRTRAAELLGLSRPTLLAKMDKLNL”, “HMNGPTPEEKLAVVNAEFVRQYGDEYEELELEGEELEEYYQKALNKEDFEYDIPHLPGWDEP” is higher in “soluble fraction (log2)” value: -2.92 for the first, -0.174 for the second.

Going from “HMNHHEIIMKNIDTLLKEKNISISKLEKSLGISNGYISRLRNGKYNFSLDLLLKLAKKFKISIDYLLTDFD” to “HMNHNPSIARKISREIKRGAPPESLLNLARTVNDSYYRSLSFVSIAYSIKGKKSKELFEEAISNLT”, the “soluble fraction (log2)” value rises from -0.317 to -0.107.

Going from “HMNHTIEENDRVLILDPRGKKYLITVTNRVFHTNLGKLDISELIGKNYGDKIKSHMGKNFSILKPNLIDYI” to “HMNIAEIGQKVAQQRVALGISQERLAKLSDLSRSTIHHLEHGTLHEIGAAKLFKLLSLLDIQLK”, the “soluble fraction (log2)” value falls from -0.0314 to -2.07.

First: HMNIDQAFISDLERMIMPDISKYELMDIISIMENSGFTIKVEGTGNEVRQVIKPGSKLKKGQKIKIKL
Second: HMNIEIIEVQEESTPSEISKIISTESTKIIEDLLNLGVMASLETPLKNQDIEKLLEGYGYIVDIKP
The “soluble fraction (log2)” value of the first is lower: -2.03 for the first, 0.0251 for the second.

First: HMNIGEKIKKIRTQQNKSTYELADIINKNGFKISQSAISKIENGRKKIDIETLEEIAKALDIEVDLLIT
Second: HMNIGIVSLAAVPMRKEPSDRAEMVNQILFGETFDVLEEQEKWTLVQLHHDAYQGWIDRKQWDYASGIAD
The “soluble fraction (log2)” value of the first is higher: -0.153 for the first, -1.33 for the second.

Going from “HMNIIHNPSKNFIESDLNDLKEGMEIEHKKFGYGLIKSIDKTQNHQKAVVNFKLVGEKTLLLSFARLRIV” to “HMNIILFLDELHRLLSDLPPEERNQAIKYYEDYFEDAGPENEQAILKELGSPQELANQIKATT”, the “soluble fraction (log2)” value rises from -3.15 to -0.94.

First: HMNIIMLGEFIKEQRIKRKMTQEYLASELGISRPTYSQIELGTRELTIPEARKMAAIFNISLEDFLAEKE
Second: HMNIMNINQALNVLNLKGTVSKEELAKAYKKMAIKYHPDRNPTGVEMMKVINSAYEFLKGLNLEEIKH
The “soluble fraction (log2)” value of the first is lower: -2.35 for the first, 0.0759 for the second.

Going from “HMNINLNVGKRLKSIRQNKELSLDEVSNLTNVSKPALAQIERGASSPTINTLWKISKGLKVPLSYFLQE” to “HMNINVRNTGIKAVENNIINLSSDQRTFTWASNDRKLITVPFDENPYSALAAWFKTDEGIEVYQTIEKKL”, the “soluble fraction (log2)” value rises from -0.713 to -0.0488.

First: HMNIWNEWAFKKWIESDEYTGPDMTDFGHRTLVDEEFSKQYKEQMSLFKERVLTDDEFSAKYGDL
Second: HMNKEDIASNEKLLGLLNHMSKVLKDIDFIKDDRPMIVRKINHIFKKATLSEEEINILRGVLSAIENHS
The “soluble fraction (log2)” value of the first is higher: -0.811 for the first, -1.46 for the second.

Compared with “HMNKEKLLEMFESMSIIIVQSLEEKEQTEDRIETELFNEAKTPRYSTLTKQDIQSVIRNILITVGV”, “HMNKELVVPDLTDMRVKDAEFEAHQVGMRTEIVDSVYVRRLKRGYVYKQNPVPGSKVKKGRRIALTINAV” is higher in “soluble fraction (log2)” value: -1.76 for the first, 0.212 for the second.

Compared with “HMNKETYIDALERKLWDRLDPDQLRDIISYYKDYFAMEAAKGISEEETIRKLGDPALLAKSILAAE”, “HMNKEVDLPNFVGMTKENAQAQADKIKIKLEFEEEYSSDVEEGKIISQNPEYKENYKIKEKSTVSLKI” is higher in “soluble fraction (log2)” value: -0.332 for the first, 0.312 for the second.

Compared with “HMNKFKVNERVRVIATGEIGIVKGREILPVEGSKRVNIEYLVKVGNGFSNWKAFSKKELEPVR”, “HMNKFRVGDEVEIVKLDKTIQHFGGEEVLSPVGTKTYITYVDVTGKEIEIDKDIYSYHADDLTLV” is higher in “soluble fraction (log2)” value: -1.88 for the first, no less than 1.04 for the second.

First: HMNKKLEMKIEQLDLSVRLFNSLKRSGIYTVAQIIKLTEEDVMRFRSLGRKSFKELKEKLSEHGLEFE
Second: HMNKLKALREEQGLSMMEIAKQLNMPYTTYVNYEKGTREPNSEMLIKFSKFFNVTIDYLIGNSEQKN
The “soluble fraction (log2)” value of the first is higher: -2.14 for the first, -2.48 for the second.

Going from “HMNKNLQLMINEIKKGLASEDIETRKKSVLMLSRIDAPEIIQVLEPLKDDSSEEIRKISSKIISVLSKKYT” to “HMNKNQGVTTTNLNFRKSASTSSLVLYTIPKNTTLDILDKLPSGWYKVKYKGLTGYVSGSYV”, the “soluble fraction (log2)” value falls from -0.108 to -2.99.

First: HMNKPTFNIFNNRLTFPFKGDITIYSLDGKRVFSAYNESSVNLSFLNRGSYISEFNNSRSVLIL
Second: HMNKRKQRINDLMDLIREQPALSIKNLAEMLNVSEMTIRRDMAYLKSNNLLNRAHGMNFLNS
The “soluble fraction (log2)” value of the first is lower: -1.34 for the first, -0.407 for the second.

First: HMNKSEFLNELEKRIRVLEKNEIKDILAEYSQHIDMRMGSGLSEAEAIKDFGDMDDLAAEILEAY
Second: HMNKVDEEKNAELVSTIQNKFSDVSAATKKKVKAFMAEHDIPNFKNADEIPTANLEAIVAMLNED
The “soluble fraction (log2)” value of the first is lower: -0.277 for the first, 0.255 for the second.

Going from “HMNKYNNIEDLKEEDFENISEKYQVPVSFVKSKLDDLINWHEKNPQKNHYKNYLSALRDWVKRDSLKIKL” to “HMNLDELGNRIREQRIKQRLKQQDIANALMLSAQAVSKWERGENAPDISVLPDLVKILGVSVDWLLTGP”, the “soluble fraction (log2)” value falls from -0.132 to -0.949.

First: HMNLDPHVVGHRLRDLRTRRDLTLADVAAETDISVSTLSRLESGSRRATLELLVPLARTYRVTLDELVDA
Second: HMNLDPIKRKSEILSLFESHKNVKFNEIFFEKVNKEFTVLTFLIILELVKDNIIDFSQTQEGLIEFFTR
The “soluble fraction (log2)” value of the first is lower: -1.15 for the first, -0.00641 for the second.

Going from “HMNLDVPGIIKRAKQALNLKRDSELAEFLGVSRATVTNWAARNSIDFRLLLDKLGNTVDYNWLLLGKGNPK” to “HMNLDYKQFQVFNNIETLNTFTNLLSDNKIDFEVENNSKIFDPSFANNDFEKEYIVKIHPNDFEKVY”, the “soluble fraction (log2)” value rises from -1.11 to 0.0557.

First: HMNLEIGAIIKSLRAKHKYTQEQLSAFLGVTPQAVSRWEAGNGYPDIELLPAIARFFEVSTDELLGL
Second: HMNLGDLYVIMEIAGQRDDVSARLMNREGQTFLVKTGTKLKSGDVVKEITPTYIKTDHDGEEAFLYF
The “soluble fraction (log2)” value of the first is lower: -2.2 for the first, -0.78 for the second.

First: HMNLGETIYNLRKEKKLSQGDLAEQLSVSRQSVSKWENNSAVPDLDKLVKLSTIFGVSLDELVKG
Second: HMNLGLTGDPSVLYSILLQRGDSSRADLQRQTGWSLSKTTLVLNQLLAQKLIVQVGAGRSTQYRVIN
The “soluble fraction (log2)” value of the first is higher: -0.0337 for the first, -2.78 for the second.

Going from “HMNLGNLAYESKVTKQVLNMIRPLHPEYSSDDITRAVKEILSEEGSRQRRVDEIARGALDVLMGNPR” to “HMNLLQAHLLRLESAALLAEVREVDRQLSRWLHPLTPQSDVAIIDERNWEAAVARLTELGVHIEEGRW”, the “soluble fraction (log2)” value falls from 0.0661 to -3.05.

Going from “HMNLNIGNNIKNIRKSKNMTQTDFAELMGLSRSYIGDLENNRSNPSIKTLEAIARALDVPIVALIN” to “HMNLSSETLSEMEARIGQMGVVELQDRRAYLLQEQEGTQNPSRLKEIADELSAIQKALVALV”, the “soluble fraction (log2)” value rises from -0.528 to 0.705.

Going from “HMNLTEIGQRIRDRREELGLSQDRLAKLGGLPRVTINQLETGSIGDLGVSKLLNLLDLLGLTLDA” to “HMNLTLMDALKAAGLPVDGINLSMVNKMMEEQMPIDKTSLNQMYQLVQDNKDINVTTLVELKRLG”, the “soluble fraction (log2)” value rises from -0.559 to 0.0398.

Going from “HMNLTSNDAYSRILNAIITSELRPGDTVTEIQLAQKFGFGRTPVREAIMRLENEGFIVSAERKKRVYIL” to “HMNLTSSDIQKILSYALLADNSITLNSIEESMASLKLKKMSAEQLIELLEVSSMVLRNTNNSWSIL”, the “soluble fraction (log2)” value rises from -2.97 to -2.28.

Compared with “HMNMENIADKIGKIYESLPEDLKLMIKYRDIDDLTYDEIAVKADLPVGTVRSRLHRAREQLLKELEKN”, “HMNMEPNWLKWAKQLAALAQNGLTYSDNPYEIERYEHIRRIAAEMMAEGFELDTKTILELFPREKG” is lower in “soluble fraction (log2)” value: -0.233 for the first, -2.68 for the second.

Going from “HMNMFDMRKTGARISQLRRAAGLTQAELAEKLGISYQAVSSWERGSNMPDIGKLLDLARILNTTVDALLSA” to “HMNMGKRFKELRKERKFTQQQLADRIGLAPSAISSYESGARYPSYDVLIKYSKIFHVTTDYLLG”, the “soluble fraction (log2)” value falls from -1.19 to -2.79.

Going from “HMNMKVGPVPANVVPANIKAHVSNNYSKYQIVQMMQNDKGYQVKLSNGTDLYYDKDGNILKTS” to “HMNMSVGAALRRRRNELGMTLRELADEAELTSGFLSQVENDRVSPSLKSLGRIAEVLRIPLFQLLS”, the “soluble fraction (log2)” value falls from 0.0129 to -1.72.

“HMNMSVVEKVIQQISNPGRDSLIPILQAVQEEEGFISRESVIEIGKALDLPASKIYGVATFYNQFR” and “HMNMTDVLVVNQTVRGGTQITESMLSVKKVDKSSLPDNYLKASLKDEVVGKYFDLGLTSGGVLTKDNISVS” are within 0.2 log units of each other in “soluble fraction (log2)” value: -0.206 for the first, -0.154 for the second.

For “HMNMVSGHLQIKKGYYYVVLSYYDNRNKRHVKYVSTGLPEKGNKRKAEAALARVRSEFEPPQE”, the “soluble fraction (log2)” value was -3.95.
